{"source": "patent US20210163599A1", "about": "(AVACTA LIFE SCIENCES, published 2021)", "binders": {"B1": {"name": "AVA04-211 (designed binder)", "Affimer polypeptide": "MIPRGLSEAKPATPEIQEIVDKVKPQLEEKTNETYGKLEAVQYKTQVLAKDWGPSNWWSTNYYIKVRAGDNKYMHLKVFNGPVDDKTLSKDADRVLTGYQVDKNKDDELTGFAAAGHHHHHH", "notes": "also called AVA04 clone 211"}, "B2": {"name": "AVA04-227 (designed binder)", "Affimer polypeptide": "MIPRGLSEAKPATPEIQEIVDKVKPQLEEKTNETYGKLEAVQYKTQVLAKDHGPIAWWSTNYYIKVRAGDNKYMHLKVFNGPEDTNTDGALADRVLTGYQVDKNKDDELTGFAAAGHHHHHH", "notes": "also called AVA04 clone 227"}, "B3": {"name": "AVA04-269 (designed binder)", "Affimer polypeptide": "MIPRGLSEAKPATPEIQEIVDKVKPQLEEKTNETYGKLEAVQYKTQVLAKEYGPEEWWSTNYYIKVRAGDNKYMHLKVFNGPGDYEQVLIHADRVLTGYQVDKNKDDELTGFAAAGHHHHHH", "notes": "also called AVA04 clone 269"}, "B4": {"name": "AVA04-141 Monomer His (designed binder)", "Affimer polypeptide": "MIPRGLSEAKPATPEIQEIVDKVKPQLEEKTNETYGKLEAVQYKTQVLAAAHFPEHFWSTNYYIKVRAGDNKYMHLKVFNGPQPADMSAEFADRVLTGYQVDKNKDDELTGFAAAGHHHHHH", "notes": "also called Affimer monomer; AVA04 clone 141"}, "B5": {"name": "AVA04-228 (designed binder)", "Affimer polypeptide": "MIPRGLSEAKPATPEIQEIVDKVKPQLEEKTNETYGKLEAVQYKTQVLAKPYGPRDWDSTNYYIKVRAGDNKYMHLKVFNGPEPQLDTSPIADRVLTGYQVDKNKDDELTGFAAAGHHHHHH", "notes": "also called AVA04 clone 228"}, "B6": {"name": "AVA04-261 (designed binder)", "chain": "MIPRGLSEAKPATPEIQEIVDKVKPQLEEKTNETYGKLEAVQYKTQVLAHAYGPRDWDSTNYYIKVRAGDNKYMHLKVFNGPPADHVLEEAADRVLTGYQVDKNKDDELTGFAAAGHHHHHH"}, "B7": {"name": "AVA04-231 (designed binder)", "Affimer polypeptide": "MIPRGLSEAKPATPEIQEIVDKVKPQLEEKTNETYGKLEAVQYKTQVLANTWFPESFWSTNYYIKVRAGDNKYMHLKVFNGPDDNQERQEHADRVLTGYQVDKNKDDELTGFAAAGHHHHHH", "notes": "also called AVA04 clone 231"}, "B8": {"name": "AVA04-251 (designed binder)", "chain": "MIPRGLSEAKPATPEIQEIVDKVKPQLEEKTNETYGKLEAVQYKTQVLAREGRQDWVLSTNYYIKVRAGDNKYMHLKVFNGPWVPFPHQQLADRVLTGYQVDKNKDDELTGFAAAGHHHHHH"}, "B9": {"name": "AVA04-261 BN (designed binder)", "chain": "MIPRGLSEAKPATPEIQEIVDKVKPQLEEKTNETYGKLEAVQYKTQVLAHAYGPRDWDSTNYYIKVRAGDNKYMHLKVFNGPPADHVLEEAADRVLTGYQVDKNKDDELTGFGGGGSGGGGSGGGGSGGGGSEPKSCDKTHTCPPCPHHHHHH", "notes": "Affimer - (G4S)4 - human IgG1 hinge - His; dimerises through the hinge cysteines"}}, "key": {"huPD-L1 on H441 cells": {"target": "T1, huPD-L1 on H441 cells (human, UniProt Q9NZQ7 19-290)", "T1 construct": "whole, on cells; also called H441 cells (expressing huPD-L1)", "T1 sequence (Q9NZQ7 19-290)": "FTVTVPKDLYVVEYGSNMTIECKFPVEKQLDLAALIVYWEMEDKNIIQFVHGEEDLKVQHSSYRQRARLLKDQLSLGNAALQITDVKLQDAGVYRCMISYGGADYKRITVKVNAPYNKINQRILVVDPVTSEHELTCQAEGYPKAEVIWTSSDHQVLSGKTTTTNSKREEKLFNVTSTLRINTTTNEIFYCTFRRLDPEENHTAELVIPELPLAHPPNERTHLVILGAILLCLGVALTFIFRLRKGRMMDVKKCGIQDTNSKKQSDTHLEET", "experiment": "flow cytometry, % of positive H441 cells (human lung adenocarcinoma cells expressing PD-L1)", "procedure": "The binding affinity of AVA04 Affimer polypeptides was determined using Flow cytometry on Human lung adenocarcinoma cell line. […] Cells were collected by centrifugation at 300 rpm for 5 min. The cells were resuspended in PBS and 50000 cells per wells were dispatched in a round bottom 96 well plate. Cells were washed with PBS. Affimer and controls were diluted in staining buffer (R&D) in duplicate and added on cells for staining for approximately 60 min at 4±1° c. Cells were washed and the secondary anti-Cystatin A (R&D) was diluted 1:15 in staining buffer (R&D) and added on cells for staining for approximately 40 min at 4±1° c. Cells were washed and the detection antibody A488 anti-Goat (Biolegend) was diluted 1:100 in staining buffer (R&D) and added on cells for staining for approximately 30 min at 4±1° c. Finally, cells were washed, live and dead cells were stained using L/D stain Zombie Aqua (Biolegend) diluted in staining buffer for 10 min at 4±1° c. Cells were washed and fixation buffer (R&D) was added to each well for 10 min at 4±1° C. then PBS with EDTA (Lonza) was added prior reading the plate on the flow cytometer (Guava 12 HT, Millipore). Dead cells were excluded and the fluorescent Green channel (488 nm/525/30) was acquired. Results were analyzed using Incyte and data were plotted using graphpad."}, "huPD-L1-Fc (R&D Systems) [1]": {"target": "T2, huPD-L1-Fc (R&D Systems) (human, UniProt Q9NZQ7 19-239)", "T2 construct": "Bought from R&D Systems; also called hPDL1-Fc; human PD-L1 Fc antigen", "T2 sequence (Q9NZQ7 19-239 limits assumed)": "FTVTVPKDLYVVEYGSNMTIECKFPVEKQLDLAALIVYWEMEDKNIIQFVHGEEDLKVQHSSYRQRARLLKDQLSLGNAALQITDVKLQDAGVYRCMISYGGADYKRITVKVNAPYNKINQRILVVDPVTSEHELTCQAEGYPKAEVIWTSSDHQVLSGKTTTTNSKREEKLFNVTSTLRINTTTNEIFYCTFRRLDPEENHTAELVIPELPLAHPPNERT", "experiment": "competition ELISA: hu PD-1-Fc coated, binder preincubated with 30 ng/ml huPD-L1-Fc; blocked ligand PD-1", "procedure": "Plates were washed 2 times with 150 μl of washing buffer (PBS, Tween 20 0.1%) with a plate washer and saturated with Casein 5% (Sigma) in PBS for 90 minutes at room temperature (25±1° C.) Plates were washed as described previously. […] The reaction was stopped using an acidic solution and plates were read at 450-630 nm. The IC 50 was then calculated using the interpolated non-linear four-parameters standard curve."}, "huPD-L1-Fc (R&D Systems) [2]": {"target": "T2, huPD-L1-Fc (R&D Systems)", "experiment": "Biacore T200, PD-L1-Fc immobilised on CM5, Affimer as analyte, 1:1 Langmuir fit", "procedure": "The concentration titration of Affimer monomer was run as analyte with an association time of 150 seconds, followed by a dissociation time of 300 seconds at a flow rate of 30 μl/min. […] The data blank was subtracted and fit to a 1:1 Langmuir binding model (BIAcore evaluation software; GE) to calculate an apparent KD value."}, "huPD-L1-Fc (R&D Systems) [3]": {"target": "T2, huPD-L1-Fc (R&D Systems)", "experiment": "Biacore (target not named on the sheet; PD-L1 by the example)"}, "huPD-L1-Fc (R&D Systems) [4]": {"target": "T2, huPD-L1-Fc (R&D Systems)", "experiment": "Biacore"}}}
{"binder": "B1", "values": [{"measurement": "EC50", "setting": "huPD-L1 on H441 cells", "value": 0.21, "unit": "nM"}]}
{"binder": "B2", "values": [{"measurement": "EC50", "setting": "huPD-L1 on H441 cells", "value": 0.04, "unit": "nM"}]}
{"binder": "B3", "values": [{"measurement": "EC50", "setting": "huPD-L1 on H441 cells", "value": 0.01, "unit": "nM"}]}
{"binder": "B4", "values": [{"measurement": "IC50", "setting": "huPD-L1-Fc (R&D Systems) [1]", "value": 2.5, "unit": "nM"}, {"measurement": "Kd", "setting": "huPD-L1-Fc (R&D Systems) [2]", "value": 8.9, "unit": "nM"}, {"measurement": "koff", "setting": "huPD-L1-Fc (R&D Systems) [2]", "value": 0.0251, "unit": "s⁻¹"}, {"measurement": "kon", "setting": "huPD-L1-Fc (R&D Systems) [2]", "value": "2.81e+06", "unit": "M⁻¹ s⁻¹"}]}
{"binder": "B5", "values": [{"measurement": "EC50", "setting": "huPD-L1 on H441 cells", "value": 0.18, "unit": "nM"}]}
{"binder": "B6", "values": [{"measurement": "EC50", "setting": "huPD-L1 on H441 cells", "value": 0.043, "unit": "nM"}]}
{"binder": "B7", "values": [{"measurement": "EC50", "setting": "huPD-L1 on H441 cells", "value": 9.51, "unit": "nM"}]}
{"binder": "B8", "values": [{"measurement": "EC50", "setting": "huPD-L1 on H441 cells", "value": 2.06, "unit": "nM"}]}
{"binder": "B9", "values": [{"measurement": "koff", "setting": "huPD-L1-Fc (R&D Systems) [3]", "value": 0.000156, "unit": "s⁻¹"}, {"measurement": "kon", "setting": "huPD-L1-Fc (R&D Systems) [3]", "value": "2.61e+06", "unit": "M⁻¹ s⁻¹"}, {"measurement": "Kd", "setting": "huPD-L1-Fc (R&D Systems) [4]", "value": 0.0599, "unit": "nM"}]}
